Measured values as given in patent publication US12404345B2, “Humanized antibodies against iRHOM2” (SCIRHOM GMBH, priority 2021, dated 2025).

Test system: LPS-induced release of endogenous TNFα
Experiment: Mouse model for septic shock, LPS-induced TNFα release in serum of genetically humanized mice
Format: in vivo
Conditions: antibody 250 μg/kg in 200 μL PBS injected 1h before LPS 50 μg per mouse; serum 2h after LPS
Protocol: In the following study, ELISA-based TNFα release assays were performed to verify the inhibitory effects of the antibodies of the invention on LPS-induced release of endogenous TNFα in a mouse model for septic shock. The experiment was conducted using genetically humanized mice, in which parts of the mouse genomic iRhom2 DNA (exons which encode for the antibody binding site) were replaced by the corresponding human genomic DNA sequences. All animal experiments were approved by the Institutional Animal Care and Use Committee of the Hospital for Special Surgery and Weill Cornell Medicine.
On day 1, one group of mice was injected with the antibodies of the invention at a concentration of 250 μg/kg in 200 μL PBS. A second group was injected with the same volume of PBS only (200 μl PBS per mouse). 1h later all mice were subjected to an injection of LPS (Sigma, USA) at a concentration of 50 μg/200 μL per mouse (250 ng/μL). All mice were closely monitored and euthanized after 2h by CO2 inhalation. […]
For measuring TNFα release, Mouse TNF-α Uncoated ELISA Kit (Invitrogen, USA) was used. […] The color reaction was stopped by the addition of 100 μl 2N sulfuric acid (Sigma, USA) and the ELISA plate was read at the wavelength of 450 nm using a Multiskan Titertek Plate reader (VWR, USA).

B1: 42-B-02: humanized antibody binding human iRhom2; HCVD SEQ ID NO 33, LCVD SEQ ID NO 37 (antibody, V domains shown)
VH: QVTLRESGPALVKPTQTLTLTCTFSGFSLSTFGRGVGWIRQPPGKALEWLAHIWWDDEKYYNSALKSRLTISKDTSKNQVVLTITNMDPVDTATYYCARIQNYGSNYWYFDVWGQGTLVTVSS
VL: AIQLTQSPSSLSASVGDRVTITCRASSRISYMFWYQQKPGKAPKVLIYDTSNLASGVPSRFSGSGSGTDYTLTISSLQPEDFATYYCQQWNSYPLTFGQGTKLEIK
modifications: antibody sequences
  LPS-induced release of TNFα in serum of genetically humanized mice, percent release (buffer treated control animals set to 100%): 17.3%
